Reference: US20230265198A1 (TWIST BIOSCIENCE, published 2023)
Positions count from the first letter of the chain named.

B1: NRP1-228 (antibody, IgG2, V domains shown)
VH: EVQLLESGGGLVQPGGSLRLSCAASGFSFSTHAMTWVRQAPGKGLEWVSTISGLGTGTYYADSVKGRFTISRDNSKNTLYLQMNSLRAEDTAVYYCARSTRGGFDYWGQGTLVTVSS
VL: DIQMTQSPSSLSASVGDRVTITCRAGQSIRSYLNWYQQKPGKAPKLLIYAASTLQRGVPSRFSGSGSGTDFTLTISSLQPEDFATYYCQQTYTTPLTFGGGTKVEIK
B2: NRP1-274 (antibody, IgG2, V domains shown)
VH: EVQLLESGGGLVQPGGSLRLSCAASGFTFSKYAMNWVRQAPGKGLEWVSTISGSGGSTSYADSVKGRFTISRDNSKNTLYLQMNSLRAEDTAVYYCARGQDIKRNVMRRGGRLNWFDPWGQGTLVTVSS
VL: B1 VL with G26S, R30G, Y32N, A50G, S52T, T53N, R56S, T91S, T93R
B3: NRP1-278 (antibody, IgG2, V domains shown)
VH: EVQLLESGGGLVQPGGSLRLSCAASGFTFRRYAMSWVRQAPGKGLEWVSAISGSGDRTYYADSVKGRFTISRDNSKNTLYLQMNSLRAEDTAVYYCARDRGLRYFDWSFDYWGQGTLVTVSS
VL: B1 VL with A25T, G26S, R30S, S52A, T53G, Q55R, R56G, T91S, Y92F, L96W
B4: NRP1-270 (antibody, IgG2, V domains shown)
VH: EVQLLESGGGLVQPGGSLRLSCAASGFTFSIYAMGWVRQAPGKGLEWVSSISGRGGSIYYADSVKGRFTISRDNSKNTLYLQMNSLRAEDTAVYYCARSAGTFDYWGQGTLVTVSS
VL: B1 VL with G26S, Y32H, T53S, L54V, Q55E, R56S, T91S, T93S, T94A
B5: NRP1-238 (antibody, IgG2, V domains shown)
VH: EVQLLESGGGLVQPGGSLRLSCAASGFSFSNYGMSWVRQAPGKGLEWVSSISHSGGSTYYADSVKGRFTISRDNSKNTLYLQMNSLRAEDTAVYYCARVGPGRSIAARQGFKRRNNWFDPWGQGTLVTVSS
VL: B1 VL with G26S, R30S, Y32Q, A50R, T53R, R56S, T91S, T93S, L96R, T97S
B6: NRP1-257 (antibody, IgG2, V domains shown)
VH: EVQLLESGGGLVQPGGSLRLSCAASGFTFSRYGMSWVRQAPGKGLEWVSTISGSGGSTSYADSVKGRFTISRDNSKNTLYLQMNSLRAEDTAVYYCARASHVDIPRRAPKRRHSFDSWGQGTLVTVSS
VL: B1 VL with G26S, S28T, R30S, S31N, L33V, T53S, Q55H, R56A, T91G, T93S
B7: NRP1-285 (antibody, IgG2, V domains shown)
VH: EVQLLESGGGLVQPGGSLRLSCAASGFTLSNYGMSWVRQAPGKGLEWVSTISGSGSGTYYADSVKGRFTISRDNSKNTLYLQMNSLRAEDTAVYYCARAGKAFDYWGQGTLVTVSS
VL: B1 VL with G26S, I29V, R30S, N34S, S52T, T53S, Q55E, R56S, T91S, T93R
B8: NRP1-232 (antibody, IgG2, V domains shown)
VH: EVQLLESGGGLVQPGGSLRLSCAASGFTFTNYAMNWVRQAPGKGLEWVSSISGSGGRTDYADSVKGRFTISRDNSKNTLYLQMNSLRAEDTAVYYCARLKRGGTNLVRKATRYQFYGMDAWGQGTLVTVSS
VL: B1 VL with G26S, S28N, R30A, S31K, A50S, T53N, R56S, T91N, T93K, L96Y
B9: NRP1-229 (antibody, IgG2, V domains shown)
VH: EVQLLESGGGLVQPGGSLRLSCAASGLTFSNFAMSWVRQAPGKGLEWVSAISGRGSSTYYADSVKGRFTISRDNSKNTLYLQMNSLRAEDTAVYYCARVMKMSRRIVGRRHRKGDGMDVWGQGTLVTVSS
VL: DIQMTQSPSSLSASVGDRVTITCRASQAISRSLNWYQQKPGKAPKLLIYGASALQTGVPSRFSGSGSGTDFTLTISSLQPEDFATYYCQQSYRPPFTFGGGTKVEIK
B10: NRP1-284 (antibody, IgG2, V domains shown)
VH: EVQLLESGGGLVQPGGSLRLSCAASGFTFSSSAMNWVRQAPGKGLEWVSAITSSGGSTYYADSVKGRFTISRDNSKNTLYLQMNSLRAEDTAVYYCARVTKMSPRSVGRRLRKGDGLDVWGQGTLVTVSS
VL: B9 VL with A28S, N34S, G50S, A53R, T56S, Q89L, R93S, P94S, F96R
B11: NRP1-264 (antibody, IgG2, V domains shown)
VH: EVQLLESGGGLVQPGGSLRLSCAASGFTFRGYAMSWVRQAPGKGLEWVSTISGSGGVTYYADSVKGRFTISRDNSKNTLYLQMNSLRAEDTAVYYCARVRVDARPRGMMSRYYGMDVWGQGTLVTVSS
VL: B9 VL with A28S, R31N, S32R, A53S, T56P, Y92F, R93N, P94T, F96R
B12: NRP1-258 (antibody, IgG2, V domains shown)
VH: EVQLLESGGGLVQPGGSLRLSCAASGFRFGNYAMSWVRQAPGKGLEWVSAISGSAGRTYYADSVKGRFTISRDNSKNTLYLQMNSLRAEDTAVYYCARAPFQSRIGLAGTRRHKRDNFDQWGQGTLVTVSS
VL: DIQMTQSPSSLSASVGDRVTITCRASQSIDNFLNWYQQKPGKAPKLLIYGASKLQRGVPSRFSGSGSGTDFTLTISSLQPEDFATYYCQQSYSSPPVTFGGGTKVEIK
B13: NRP1-281 (antibody, IgG2, V domains shown)
VH: EVQLLESGGGLVQPGGSLRLSCAASGFTFRSLAVSWVRQAPGKGLEWVSTITGSGGATYYADSVKGRFTISRDNSKNTLYLQMNSLRAEDTAVYYCVRALAGRRDHWGQGTLVTVSS
VL: B12 VL with D30R, N31T, F32S, G50A, K53A, Q55H, R56S, S94T, P95L, V97I
B14: NRP1-227 (antibody, IgG2, V domains shown)
VH: EVQLLESGGGLVQPGGSLRLSCAASGFTLRNYAMSWVRQAPGKGLEWVSALSSSGGSTYYADSVKGRFTISRDNSKNTLYLQMNSLRAEDTAVYYCARGGRGLRLQVPIVRHARKGKDYYMDVWGQGTLVTVSS
VL: DIQMTQSPSSLSASVGDRVTITCRPSQSVTTYLNWYQQKPGKAPKLLIYGSSTLQSGVPSRFSGSGSGTDFTLTISSLQPEDFATYYCQQSYTFPRTFGGGTKVEIK
B15: NRP1-254 (antibody, IgG2, V domains shown)
VH: EVQLLESGGGLVQPGGSLRLSCAASGFTFNTHAMSWVRQAPGKGLEWVSTISGSGGYTYYADSVKGRFTISRDNSKNTLYLQMNSLRAEDTAVYYCAKDLAAAGDYWGQGTLVTVSS
VL: B1 VL with G26S, S28R, R30S, S31T, T53H, R56S, T91S, Y92H
B16: NRP1-248 (antibody, IgG2, V domains shown)
VH: EVQLLESGGGLVQPGGSLRLSCAASGFTFSKYAMSWVRQAPGKGLEWVSSISTSGGSTYYADSVKGRFTISRDNSKNTLYLQMNSLRAEDTAVYYCARGLLRLKPERRVRTTYYYGMDVWGQGTLVTVSS
VL: B1 VL with A25T, G26S, R30G, A51S, T53S, R56S, T91S, T93S, L96F, T97S
B17: NRP1-252 (antibody, IgG2, V domains shown)
VH: EVQLLESGGGLVQPGGSLRLSCAASGFTFRSLAVSWVRQAPGKGLEWVSTITGSGGATYYADSVKGRFTISRDNSKNTLYLQMNSLRAEDTAVYYCARGRRGMPTPDTVRKMSKSHLYFDSWGQGTLVTVSS
VL: B1 VL with G26R, R30S, S31T, A50S, Q55E, R56S, T91S, T93R, L96W
B18: NRP1-244 (antibody, IgG2, V domains shown)
VH: EVQLLESGGGLVQPGGSLRLSCAASGFTFTSYGMSWVRQAPGKGLEWVSTISGSGGYTYYADSVKGRFTISRDNSKNTLYLQMNSLRAEDAAVYYCALWNRYGGLSYWGQGTLVTVSS
VL: B14 VL with P25A, V29I, T30A, N34H, S51T, T53N, T93R, F94T, R96G
B19: NRP1-235 (antibody, IgG2, V domains shown)
VH: EVQLLESGGGLVQPGGSLRLSCAASGFTFPNYAMTWVRQAPGKGLEWVSGISGSGGRIYYADSVKGRFTISRDNSKNTLYLQMNSLGAEDTAVYYCARARKFRELLRRNNYSNHYYMDVWGQGTLVTVSS
VL: B14 VL with P25T, V29I, T30G, T31N, S51A, T53K, S91G, T93S, F94T
B20: NRP1-279 (antibody, IgG2, V domains shown)
VH: EVQLLESGGGLVQPGGSLRLSCAASGFTFSRHAMSWVRQAPGKGLEWVSGISGSGGRTHYADSVKGRFTISRDNSKNTLYLQMNSLRAEDTAVYYCARDPSTIAARRANHYYMDVWGQGTLVTVSS
VL: B9 VL with A25T, A28S, R31N, S32F, G50R, A53T, R93K, P94T, F96R
B21: NRP1-265 (antibody, IgG2, V domains shown)
VH: EVQLLESGGGLVQPGGSLRLSCAASGFTFGKYAMTWVRQAPGKGLEWVSGISGSGGRTNYADSVKGRFTISRDNSKNTLYLQMNSLRAEDTAVYYCARDFVAWRGGFRRYYSYNGMDVWGQGTLVTVSS
VL: B14 VL with P25A, S28Y, T30S, S51T, T53R, T93S, F94T, R96K
B22: NRP1-268 (antibody, IgG2, V domains shown)
VH: EVQLLESGGGLVQPGGSLRLSCAASGFIFSTYALSWVRQAPGKGLEWVSGINGSGASTYYADSVKGRFTISRDNSKNTLYLQMNSLRAEDTAVYYCAREGQGWTSLLPRPSQRRPQRRPPYYGLDVWGQGTLVTVSS
VL: B14 VL with P25G, V29I, T31R, Y32F, G50A, S51T, T53R, Y92H, T93S
B23: NRP1-276 (antibody, IgG2, V domains shown)
VH: B8 VH with T28P, N31S, N35S, S50A, G53S, G56T, R57G, D59Y
VL: B1 VL with G26S, I29V, R30S, S31R, A50G, R56A, T91S
B24: NRP1-239 (antibody, IgG2, V domains shown)
VH: B5 VH with S28P, G33T, S35G, S50A, H53A, T58P, K65N
VL: DIQMTQSPSSLSTSVGDRVTITCRASQNIGSHLNWYQQKPGKAPKLLIYATSSLRSGVPSRFSGSGSGTDFTLTISSLQPEDFATYYCQQSYRIPLTFGGGTKVEIK

Molecular target: T1, neuropilin-1 (NRP1) on HEK293 cells overexpressing NRP1 (UniProt O14786 22-923, limits assumed)
T1 construct: whole, on cells
Assay: flow cytometry, HEK293-NRP1 vs HEK293

| Binder | 100 nM FACS (MFI Ratio) |
| --- | --- |
| B1 | 3 |
| B2 | 1 |
| B3 | 3 |
| B4 | 3 |
| B5 | 0.9 |
| B6 | 0.9 |
| B7 | 1.3 |
| B8 | 1.3 |
| B9 | 1.2 |
| B10 | 1 |
| B11 | 3 |
| B12 | 0.7 |
| B13 | 1.4 |
| B14 | 2.6 |
| B15 | 2.8 |
| B16 | 5 |
| B17 | 1 |
| B18 | 2.1 |
| B19 | 0.8 |
| B20 | 0.7 |
| B21 | 2.5 |
| B22 | 2.1 |
| B23 | 2.6 |
| B24 | 0.2 |
